In patent publication US20040146519A1 (published 2004):
Where two headings read alike, the source gives them in different places.

Legend:
HLA-B*5401 = HLA-B*5401 (human); assay: inhibition of 125I probe peptide, purified HLA
HLA-B*3501 = HLA-B*3501 (human); assay: inhibition of 125I probe peptide, purified HLA
HLA-B*5301 = HLA-B*5301 (human); assay: inhibition of 125I probe peptide, purified HLA
HLA-B*0702 = HLA-B*0702 (human); assay: inhibition of 125I probe peptide, purified HLA
HLA-A*0203 [1] = target: HLA-A*0203 (human); assay: competition with 125I probe peptide for purified HLA
HLA-A*0201 [2] = target: HLA-A*0201 (human); assay: as above
HLA-A*6802 = HLA-A*6802 (human); assay: as above
HLA-A*0206 = HLA-A*0206 (human); assay: as above
HLA-A*0202 [3] = target: HLA-A*0202 (human); assay: as above
HLA-B*5101 = HLA-B*5101 (human); assay: inhibition of 125I probe peptide, purified HLA
HLA-DRB1*0701 = HLA-DRB1*0701 (human); assay: inhibition of 125I probe peptide, purified HLA
HLA-A*1101 = HLA-A*1101 (human); assay: competition with 125I probe peptide for purified HLA
HLA-A*0301 = HLA-A*0301 (human); assay: as above
HLA-A*3301 = HLA-A*3301 (human); assay: as above
HLA-A*6801 = HLA-A*6801 (human); assay: as above
HLA-A*3101 = HLA-A*3101 (human); assay: as above
HLA-DRB1*0301 [4] = target: HLA-DRB1*0301 (human); assay: competition with 125I probe peptide, purified HLA
HLA-DRB1*0301 [5] = target: HLA-DRB1*0301 (human); assay: competition with 125I probe peptide, purified HLA; remark: listed apart in the source
HLA-DRB1*1302 = HLA-DRB1*1302 (human); assay: competition with 125I probe peptide, purified HLA
HLA-A*0202 [6] = target: HLA-A*0202 (human); assay: inhibition of 125I probe peptide, purified HLA
HLA-A*0203 [7] = target: HLA-A*0203 (human); assay: inhibition of 125I probe peptide, purified HLA
HLA-A*0201 [8] = target: HLA-A*0201 (human); assay: inhibition of 125I probe peptide, purified HLA

Binder | IC50 (HLA-B*5401) | IC50 (HLA-B*3501) | IC50 (HLA-B*5301) | IC50 (HLA-B*0702) | IC50 (HLA-B*5101) | also measured
FPWQRLLLTI [CEA.13.F1I10] | 4.2 nM | 2120 nM | 78 nM | 290 nM |  | 
GIMIGVLVGV [CEA.690] |  |  |  |  |  | IC50 (HLA-A*0203 [1]): 31 nM; IC50 (HLA-A*0201 [2]): 64 nM; IC50 (HLA-A*6802): 500 nM; IC50 (HLA-A*0206): 142 nM; IC50 (HLA-A*0202 [3]): 205 nM
FPGLSAGATI [CEA.680.F1, 10 AA] | 105 nM |  | 1480 nM | 212 nM |  | 
FPVSPRLQI [CEA.363.F1I9] |  | 5540 nM | 216 nM |  |  | 
FPVSPRLQL [CEA.363.F1] |  | 600 nM | 310 nM | 0.7 nM | 82 nM | 
FPQQHTQVI [CEA.632.F1I9] | 1.7 nM | 139 nM |  | 3.4 nM |  | 
FPQQHTQVL [CEA.632.F1, 9 AA] |  |  | 93 nM | 0.9 nM | 183 nM | 
LWWVNNQSLPVSPRL [CEA.177] |  |  |  |  |  | IC50 (HLA-DRB1*0701): 3050 nM
FPAYSGREI [CEA.92.F1] |  | 7200 nM | 664 nM | 2.1 nM | 183 nM | 
FPHRWCIPI [CEA.7.F1I9] | 1.9 nM | 257 nM | 135 nM | 2.5 nM |  | 
FPDAPTISPI [CEA.236.F1I10] | 278 nM | 1330 nM | 1020 nM | 183 nM |  | 
FPDAPTISPL [CEA.236.F1] | 714 nM | 327 nM | 1940 nM |  | 290 nM | 
FPGLSAGI [CEA.680.F1I8] |  | 758 nM | 332 nM |  | 9 nM | 
FPSAPPHRI [CEA.3.F1I9] | 14 nM | 3600 nM | 258 nM |  | 15 nM | 
IMIGVLVGVA [CEA.691 (10-mer IMIGVLVGVA)] |  |  |  |  |  | IC50 (HLA-A*6802): 1510 nM
TVSPSYTYYR [CEA.419.V2] |  |  |  |  |  | IC50 (HLA-A*1101): 3000 nM; IC50 (HLA-A*0301): 2340 nM; IC50 (HLA-A*3301): 264 nM
TVSPSYTYYK [CEA.419.V2K10] |  |  |  |  |  | IC50 (HLA-A*6801): 6.7 nM; IC50 (HLA-A*3101): 3670 nM; IC50 (HLA-A*1101): 43 nM
ILIGVLVGV [CEA.691L2] |  |  |  |  |  | IC50 (HLA-A*0203 [1]): 3.2 nM; IC50 (HLA-A*0201 [2]): 22 nM

Binder | IC50 (HLA-B*5401) | IC50 (HLA-B*3501) | IC50 (HLA-B*5301) | IC50 (HLA-B*0702) | IC50 (HLA-B*5101) | also measured
FPQHLFGI [CEA.58.F1, 8 AA] | 0.4 nM |  | 1070 nM | 393 nM | 212 nM | 
FPQQHTQVLF [CEA.632.F1, 10 AA] | 556 nM | 51 nM |  |  |  | 
FPQQHTQVLI [CEA.632.F1I10] | 278 nM | 809 nM |  | 134 nM |  | 
RLQLSNDNRTLTLLS [CEA.368] |  |  |  |  |  | IC50 (HLA-DRB1*0301 [4]): 938 nM; IC50 (HLA-DRB1*0301 [5]): 938 nM; IC50 (HLA-DRB1*1302): 729 nM
FPNNNGTI [CEA.646.F1] | 313 nM |  | 9300 nM | 275 nM | 19 nM | 
QLIGYVIGV [CEA.78.L2V9] |  |  |  |  |  | IC50 (HLA-A*0202 [6]): 5.9 nM
FPPHRWCIPI [CEA.6.F1I10] |  |  | 8460 nM |  | 423 nM | 
FPQHLFGYSI [CEA.58.F1I10] |  | 900 nM |  | 229 nM | 204 nM | 
FPQQHTQI [CEA.632.F1, 8 AA] |  |  | 7750 nM | 220 nM |  | 
FPGVNLSL [CEA.428.F1] | 115 nM | 277 nM | 95 nM | 19 nM |  | 
QLIGYVIGV [CEA.78L2V9] |  |  |  |  |  | IC50 (HLA-A*0202 [3]): 5.9 nM
RVLTLLSVTK [CEA.376.V2K10] |  |  |  |  |  | IC50 (HLA-A*6801): 5710 nM; IC50 (HLA-A*3101): 164 nM
RVLTLFNVTK [CEA.554.V42K10] |  |  |  |  |  | IC50 (HLA-A*6801): 2350 nM; IC50 (HLA-A*3101): 234 nM; IC50 (HLA-A*1101): 32 nM
ALVGIMIGV [CEA.687L2] |  |  |  |  |  | IC50 (HLA-A*0203 [1]): 31 nM; IC50 (HLA-A*6802): 102 nM
FPWQRLLL [CEA.13.F1, 8 AA] | 71 nM | 1760 nM | 443 nM |  | 229 nM | 
YLCGIQNSV [CEA.569L2] |  |  |  |  |  | IC50 (HLA-A*6802): 3480 nM; IC50 (HLA-A*0206): 31 nM
ILIGVLVGV [CEA.691.L2] |  |  |  |  |  | IC50 (HLA-A*0203 [7]): 3.2 nM; IC50 (HLA-A*0201 [8]): 22 nM
